Reference: paper doi:10.1101/431106, “The architecture of the endoplasmic reticulum is regulated by the reversible lipid modification of the shaping protein CLIMP-63” (bioRxiv, 2018)
Numbering of substitutions follows the chain as printed. Names and notes keep the numbering of the source.

B1: HA-CLIMP-63 V137C (natural protein, UniProt Q07065 1-602, looked up)
chain: MPSAKQRGSKGGHGAASPSEKGAHPSGGADDVAKKPPPAPQQPPPPPAPHPQQHPQQHPQNQAHGKGGHRGGGGGGGKSSSSSSASAAAAAAAASSSASCSRRLGRALNFLFYLALVAAAAFSGWCVHHVLEEVQQCRRSHQDFSRQREELGQGLQGVEQKVQSLQATFGTFESILRSSQHKQDLTEKAVKQGESEVSRISEVLQKLQNEILKDLSDGIHVVKDARERDFTSLENTVEERLTELTKSINDNIAIFTEVQKRSQKEINDMKAKVASLEESEGNKQDLKALKEAVKEIQTSAKSREWDMEALRSTLQTMESDIYTEVRELVSLKQEQQAFKEAADTERLALQALTEKLLRSEESVSRLPEEIRRLEEELRQLKSDSHGPKEDGGFRHSEAFEALQQKSQGLDSRLQHVEDGVLSMQVASARQTESLESLLSKSQEHEQRLAALQGRLEGLGSSEADQDGLASTVRSLGETQLVLYGDVEELKRSVGELPSTVESLQKVQEQVHTLLSQDQAQAARLPPQDFLDRLSSLDNLKASVSQVEADLKMLRTAVDSLVAYSVKIETNENNLESAKGLLDDLRNDLDRLFVKVEKIHEKV
notes: Made to trap dimers through a disulfide bond; also called V137C CLIMP-63; V137C mutant; source: HeLa (control or ZDHHC6 KO), transfected 24 hours, total cell extracts or immunoprecipitated with HA-beads; not shown: HA, N-terminal, kept
B2: cytoskeleton-linking membrane protein 63 (CLIMP-63), endogenous (natural protein, human (endogenous in HeLa), UniProt Q07065 1-602, looked up)
chain: B1 chain with C137V
modifications: S-palmitoylation on Cys-100 in the majority (87%) of the cellular protein
notes: CLIMP-63 (CKAP4), endogenous protein of HeLa cells; also called CKAP4; source: endogenous, HeLa cells (membrane fraction, total cell extracts, fixed cells)

Assays:
[1] = molecular target: the molecule itself; assay: cross-linking; disulfide trapping by an engineered cysteine; 35S Cys-Met 20 min pulse, immunoprecipitated using HA-beads, non-reducing SDS-PAGE, autoradiography; control cells and ZDHHC6 KO cells
[2] = molecular target: the molecule itself; assay: cross-linking; HeLa cells crosslinked 5 min at room temperature with 1mM BMOE, 1mM DSS or 0.025% glutaraldehyde; non-reducing SDS-PAGE, anti-CLIMP-63 blot

| Protein | stoichiometry N [1] | stoichiometry N [2] |
| --- | --- | --- |
| B1 | 2 | – |
| B2 | – | 2 |
